Assays:
[1] = system: beta-2-microglobulin gene; experiment: CRISPR/Cas9-mediated deletion of B2M in LSCs by nucleofection, FACS analysis; assay type: cell-based, human; conditions: Cas9 protein (SEQ ID NO: 107):sgRNA 1:10 nucleofection, LSCs passage 0, FACS
Method: The sgRNA ID SEQ NO 120 was tested for the ability to reduce or eliminate expression of B2M in LSCs using a nucleofection approach as follows.
LSCs at passage 0 were trypsinized with TryLE™Express Enzym (ThermoFisher, Cat #12605010) for 15 min in 5% CO2 at 37° C. After scraping the cells, the reaction was stopped by using cell culture medium containing 10% Serum and transferred to a falcon tube. After counting cells using Vi-cell 200′000 cells were prepared per reaction by transferring 200′000 cells in single tubes and centrifuged at 1000 rpm for 5 min.
The supernatant was aspirated using manually pipetting to avoid cell loss and the cells were resuspended in the Stem cell nucleofector solution II (Lonza, Cat #VPH-5022). Resuspend cells in nucleofector solution immediately before adding the Cas9 protein:sgRNA mixture. A stock of 100 μM (3.23 μg/μl) was prepared resuspending 5.1 nanomoles of single-guideRNA (sgRNA) in 51 μl 10 mM Tris buffer pH7.4. […]
In order to prevent cells sticking to the wall, collection tubes were filled with FACS buffer for 30 minutes before the sort and aspirated before adding the collection medium. […] FACS data were analyzed using BD FACSDiva software and FlowJo software.

[2] = system: potential off-target sites; experiment: Off-target activity detection in limbal stem cells by targeted PCR and NGS; assay type: cell-based, human; conditions: edited LSCs vs non-edited PBMCs; positive sites of sequenced loci
Method: Potential CRISPR/Cas9-mediated cutting sites identified above were evaluated using targeted PCR and NGS in genome-edited expanded LSCs.
Selected sgRNAs (SEQ ID NO: 120, 162, 166, 167, 171, and 175) were further analyzed by amplicon sequencing in edited and non-edited cells. Primers flanking the potential off-target sites for each guide were used to detect indels by NGS analysis in edited LSCs and non-edited peripheral blood mononuclear cells. Sites that had either (1) a difference in mean indel percentage between edited and unedited cells greater than 0.5%; or (2) a p value less than 0.05 between edited and unedited indel were further analyzed. NGS sequence reads for such sites were assessed for characteristic indel patterns near the putative Cas9 cut site.

[3] = system: genomic DNA purified from male human peripheral blood mononuclear cells; experiment: Biochemical method for potential off-target genomic sites cleaved by Cas9 and B2M guides; conditions: guide concentration of 64 nM
Excerpt: A biochemical method (See, e.g., Cameron et al., Nature Methods. 6, 600-606; 2017) was used to determine potential off-target genomic sites cleaved by Cas9 and selected B2M guides.

CD8+ T-cells = experiment: LSC/T-cell reaction assay (gene edited LSCs co-cultured with CD8+ T-cells); assay type: cell-based, human; conditions: B2M/HLA-Class I negative edited LSCs co-cultured 10 days with CD8+ T-cells from 4 donors
Method: An LSC/T-cell assay was performed in flat bottom 96well synthemax coated plates in duplicates and incubated in 5% CO2 at 37° C. for 10 days. RPMI-1640 supplemented with HEPES (100 μM), non-essential aas (10×), sodium pyruvate (10 mM), 2-Mercapthoethanol (10×), 10% FBS and 1% Penicillin-Streptomycin (Gibco by Life Technologies) was used as medium for co-culture. Alternatively, RPMI-1640 supplemented with HEPES (10 mM), non-essential aas (1×), sodium pyruvate (1 mM), 2-Mercapthoethanol (1×), 10% FBS and 1% Penicillin-Streptomycin (Gibco by Life Technologies) was used as medium for co-culture.
One day before co-culture, LSCs (stimulator cells) were passed and cultured to a confluency of around 70% (30′000-50′000 cells) and cultured with LSC medium including compound. On day two, peripheral blood mononuclear cells (PBMC) were separated using EDTA blood with the Ficoll-Paque method (GE Healthcare Life Sciences, cat #17-1440-03). […]
After 10 days, CD8+ cells were transferred to a U-bottomed 96-well plate and washed 3 times using autoMAC rinsing solution (Miltenyi Biotec, Cat #130-091-222) including MACS BSA stock solution (Miltenyi Biotec, Cat #130-091-376). Cells were measured on a BD LSRFortessa X-20. FACS data were analyzed using BD FACSDiva software and FlowJo software.

B1: 1-CR004366: gRNA targeting B2M (Dharmacon); targeting domain GAGUAGCGCGAGCACAGCUA (SEQ ID NO: 108); sgRNA SEQ ID NO: 120 (nucleic acid)
guide: GAGUAGCGCGAGCACAGCUAGUUUUAGAGCUAGAAAUAGCAAGUUAAAAUAAGGCUAGUCCGUUAUCAACUUGAAAAAGUGGCACCGAGUCGGUGCUUUU
modifications: listed as RNA, chemistry not given here
- LSCs with deletion of B2M and elimination of HLA A, B and C (cells not expressing B2M) [1]: about 70%
- Number of sites positive for off-target activity in LSCs [2]: zero
- off-target Site_Count [3]: 69
- T-cell immunoresponse (CD8+ T-cells): almost completely eliminated
